Our source for the amount bound per ml of matrix values is article PMC5318860.

The assay concerns the target SAVSBPM18-L-ABD(KC) fusion (not stated | Lumbricus terrestris). Put plainly: affinity chromatography; 1-ml columns with about 1 mg of SAVSBPM18-L-ABD(KC) on Sepharose 6B-CL or 1,025 μg of SAVSBPM18 on Affi-Gel 15; 1 mg of biotinylated BSA loaded, above the binding capacity; elution with 10 mM biotin; fractions on SDS-PAGE.

“chemically biotinylated bovine serum albumin (BSA) (from UniProt P02769 25-607) (natural protein)”: the amount bound per ml of matrix at saturation (μg per ml of matrix) came out at 730.
